Test results published in patent CN108640991A (JIANGSU QYUNS BIOMEDICINE CO LTD, dated 2018).

B1: Ixekizumab (antibody, V domains shown)
VH: QVQLVQSGAEVKKPGSSVKVSCKASGYSFTDYHIHWVRQAPGQGLEWMGVINPMYGTTDYNQRFKGRVTITADESTSTAYMELSSLRSEDTAVYYCARYDYFTGTGVYWGQGTLVTVSS
VL: DIVMTQTPLSLSVTPGQPASISCRSSRSLVHSRGNTYLHWYLQKPGQSPQLLIYKVSNRFIGVPDRFSGSGSGTDFTLKISRVEAEDVGVYYCSQSTHLPFTFGQGTKLEIKR
B2: 抗人白介素17A单克隆抗体QX002N (antibody, V domains shown)
VH: EVQLQESGPGLVKPSETLSLTCTVSGIDLSLFYMSWIRQPPGKGLEWIGTIHEVASSYYASWAKGRVTISKDTSKNQFSLKLSSVTAADTAVYYCARETYSSRYPYPNIWGQGTLVTVSS
VL: DIQMTQSPSSVSASVGDRVTITCQASQNIGGSLAWYQQKPGKAPKLLIYGASSLASGVPSRFSGSGSGTDFTLTISSLQPEDFATYYCQSYNTISTYGLAFGGGTKVEIK
notes: Humanised from rabbit clone 37#; also called 37-5

Target: T1, 人白介素17A (Human Interleukin-17A) (human, UniProt Q16552 24-155)
T1 construct: also called hIL-17A; IL-17A
Test: SPR Biacore T200, 25°C, antibody captured on Protein A CM5 chip, antigen in solution, 1:1 model

T1 sequence (Q16552 24-155): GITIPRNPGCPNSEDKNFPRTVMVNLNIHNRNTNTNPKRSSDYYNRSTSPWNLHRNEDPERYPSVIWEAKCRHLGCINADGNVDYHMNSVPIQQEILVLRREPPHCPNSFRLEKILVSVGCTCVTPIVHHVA

Kd [nM]	koff [s⁻¹]	kon [M⁻¹ s⁻¹]	Binder
0.0154	2.58e-05	1.7e+06	B1
0.00707	2.36e-05	3.35e+06	B2
